Where two headings read alike, the source gives them in different places.
T1: RIG-I wild type (UniProt O95786 1-925)
T1 sequence: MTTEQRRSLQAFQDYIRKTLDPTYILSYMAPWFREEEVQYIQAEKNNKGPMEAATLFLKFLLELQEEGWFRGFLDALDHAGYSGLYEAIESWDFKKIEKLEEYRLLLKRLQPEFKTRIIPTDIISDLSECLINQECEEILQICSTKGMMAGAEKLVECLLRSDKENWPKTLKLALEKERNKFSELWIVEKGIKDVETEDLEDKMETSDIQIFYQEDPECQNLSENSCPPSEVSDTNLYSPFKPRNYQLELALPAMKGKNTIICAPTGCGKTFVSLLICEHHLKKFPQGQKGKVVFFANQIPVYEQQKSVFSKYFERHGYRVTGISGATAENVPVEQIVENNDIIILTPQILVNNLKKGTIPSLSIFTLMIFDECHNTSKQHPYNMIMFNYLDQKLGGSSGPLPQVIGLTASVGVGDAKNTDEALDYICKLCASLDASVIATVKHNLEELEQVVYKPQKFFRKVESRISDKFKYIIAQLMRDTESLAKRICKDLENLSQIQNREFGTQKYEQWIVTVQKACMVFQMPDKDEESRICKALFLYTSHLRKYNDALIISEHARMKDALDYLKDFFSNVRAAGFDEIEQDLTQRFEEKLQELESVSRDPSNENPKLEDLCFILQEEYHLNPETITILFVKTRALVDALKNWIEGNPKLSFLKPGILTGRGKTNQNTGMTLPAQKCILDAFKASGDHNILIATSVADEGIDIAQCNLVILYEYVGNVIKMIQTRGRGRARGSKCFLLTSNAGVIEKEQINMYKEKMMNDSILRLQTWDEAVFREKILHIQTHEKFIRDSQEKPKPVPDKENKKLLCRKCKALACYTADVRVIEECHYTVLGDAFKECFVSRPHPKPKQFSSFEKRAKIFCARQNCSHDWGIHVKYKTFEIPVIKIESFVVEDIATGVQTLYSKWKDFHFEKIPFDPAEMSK


How the values were obtained:
RIG-I wild type [1] = target: T1, RIG-I wild type; test: ATPase titration or fluorescence titration
RIG-I wild type [2] = target: T1, RIG-I wild type; test: fluorescence intensity titration
RIG-I wild type [3] = target: T1, RIG-I wild type; test: fluorescence intensity titration; remark: listed apart in the source

Row | Binder | Kd (RIG-I wild type [1]) | binding signal (RIG-I wild type [2]) | binding signal (RIG-I wild type [3])
1 | 5'ppp dsRNA 27 bp (dsRNA, 5'-triphosphate on strand 1) RNA 1: AUACGUCCUGAUAGUUAGUAUCCAUCG RNA 2: CGAUGGAUACUAACUAUCAGGACGUAU | 2.5 nM |  | 
2 | 5'OH dsRNA 27 bp (dsRNA, 5'OH) RNA 1: AUACGUCCUGAUAGUUAGUAUCCAUCG RNA 2: CGAUGGAUACUAACUAUCAGGACGUAU |  | 1.5 fold higher Kd than 5'ppp dsRNA | 
3 | 3'ovg dsRNA (dsRNA, 5'OH) RNA 1: ACGUCCUGAUAGUUAGUAUCCAUCG RNA 2: CGAUGGAUACUAACUAUCAGGACGUAU |  | 7 fold higher Kd than 5'ppp dsRNA | 50 fold higher Kd than 5'ppp dsRNA
